Data: US20180011114A1 (PUBLIC UNIVERSITY CORPORATION NARA MEDICAL UNIVERSITY, published 2018)

B1: AJ540 (antibody, V domains shown)
VH: QIQLVQSGPELKKPGESVKISCKASGYTFTDYAMHWVKQVPGKGLKWMGWINTYTGKPTYADDFKGRFVFSLEASASTANLQISNLKNEDTANVFCAREGGGYYWYFDFWGPGTMVTVSS
VL: DIVMTQSPTSMSISVGDRVTMNCKANQNVDFNVDWYQQKTGQSPKLLIYKASNRYTGVPDRFTGSGSGTDFTFTISNMQAEDLAVYYCMQSNSFPLTFGSGTNLEIK
notes: Rat antibody from a hybridoma (culture supernatant in the ELISA); also called AJ540 antibody
B2: AQ8 (antibody, V domains shown)
VH: EVNLVESGGGLVQPGGSMSLSCAASGFTFTDYYMSWVRQPPGKALEWLALIRNKANGYTTEYSASVKGRFTISRDNSQSILYLQMNALRAEDSATYYCARDSYYSYDGYAMDYWGQGTSVTVSS
VL: DIQMTQSPASLAASVGETITITCQASENIYFSLAWYQQKQGKSPQLLIYNTDSLKDGVPSRFSGSGSGTQYSMKINSMQPEDTATYFCRQSYDFPWTFGGGTKLEIK
notes: Mouse antibody from a hybridoma (culture supernatant in the ELISA); also called AQ8 antibody

Experiments:
anti-FIXa-arm of ACE910 = biological target: T1, anti-FIXa-arm of ACE910; assay: ELISA, hybridoma culture supernatant
T1 construct: Q499/J327; also called anti-FIXa side Fab of ACE910; anti-FIXa-F(ab')2
Description: (§1) Mice and rats were immunized with anti-FIXa-F(ab′)2 or anti-FX-F(ab′)2. Cells obtained from the spleen removed from the mice or rats or from rat lymph nodes were subjected to cell fusion with mouse myeloma cells by following general methods to produce the hybridomas. The culture supernatants of the hybridomas were evaluated by ELISA which detects the binding of ACE910 to the anti-FIXa-arm or the anti-FX-arm, and ultimately, mouse antibodies, AQ8 and AQ1, and rat antibody, AQ512, which bind only to the anti-FIXa-arm but not to the anti-FX-arm of ACE910, and rat antibodies, AJ540, AJ114, AJ521, AJ522, and AJ541, which bind only to the anti-FX-arm but not to the anti-FIXa-arm of ACE910 were selected. In addition, the nucleotide sequences of the variable regions of the AQ8 antibody or the AJ540 antibody were analyzed. The nucleotide sequences of the variable regions of AQ8 and AJ540, and amino acid sequences predicted therefrom were analyzed using GENETYX Ver.9 (GENETYX CORPORATION).

anti-FX-arm of ACE910 = biological target: T2, anti-FX-arm of ACE910; assay: ELISA, hybridoma culture supernatant
T2 construct: also called anti-FX side Fab of ACE910; anti-FX-F(ab')2
Description: as §1

T2 sequence (VH, as listed by the source, chain 1 of 2): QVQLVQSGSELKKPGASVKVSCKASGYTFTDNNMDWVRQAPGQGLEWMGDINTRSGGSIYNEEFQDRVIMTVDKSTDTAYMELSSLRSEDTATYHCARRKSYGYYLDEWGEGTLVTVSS
T2 sequence (VL, as listed by the source, chain 2 of 2): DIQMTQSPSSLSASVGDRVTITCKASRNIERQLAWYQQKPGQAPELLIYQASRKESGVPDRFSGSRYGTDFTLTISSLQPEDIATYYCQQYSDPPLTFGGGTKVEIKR
T1 sequence (VH, as listed by the source, chain 1 of 2): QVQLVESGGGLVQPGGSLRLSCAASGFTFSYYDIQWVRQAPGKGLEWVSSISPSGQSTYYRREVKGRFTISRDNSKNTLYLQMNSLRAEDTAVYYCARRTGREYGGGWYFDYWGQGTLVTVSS
T1 sequence (VL, as listed by the source, chain 2 of 2): as the sequence (VL, as listed by the source, chain 2 of 2) above

Binder	binding result (anti-FIXa-arm of ACE910)	binding result (anti-FX-arm of ACE910)
B1	no binding	
B2		no binding
